Values of other authors as cited in publication PMC2663039.
Values joined by “and” are separate entries in the source; they are usually repeats but may differ in a detail not shown here. Equal values may be shown once. Each block holds one substance with its values, some of them ahead of it.

Assays:
NRP1 (Homo sapiens) [1] = target: NRP1 (Homo sapiens) (UniProt O14786); assay: SPR (BIAcore)
NRP1 (Homo sapiens) [2] = target: NRP1 (Homo sapiens) (UniProt O14786); assay: cell-based Scatchard
NRP1 (Homo sapiens) [3] = target: NRP1 (Homo sapiens) (UniProt O14786); assay: SPR
[4] = target: sVEGFR1 (sFlt-1, HUVEC-derived) soluble isoform (Homo sapiens) (UniProt P17948)
[5] = target: sFlt-1 (baculovirus-expressed) soluble form (Homo sapiens) (UniProt P17948)
VEGFR1 (Homo sapiens) = VEGFR1 (Homo sapiens) (UniProt P17948)
[6] = target: sVEGFR1 (sFlt-1, baculovirus-expressed) soluble isoform (Homo sapiens) (UniProt P17948)
[7] = target: sFlt-1 (HUVEC-derived) soluble form (Homo sapiens) (UniProt P17948)
VEGFR2 (Homo sapiens) = VEGFR2 (Homo sapiens) (UniProt P35968)
UniProt P35968, sequence (P35968 20-1356): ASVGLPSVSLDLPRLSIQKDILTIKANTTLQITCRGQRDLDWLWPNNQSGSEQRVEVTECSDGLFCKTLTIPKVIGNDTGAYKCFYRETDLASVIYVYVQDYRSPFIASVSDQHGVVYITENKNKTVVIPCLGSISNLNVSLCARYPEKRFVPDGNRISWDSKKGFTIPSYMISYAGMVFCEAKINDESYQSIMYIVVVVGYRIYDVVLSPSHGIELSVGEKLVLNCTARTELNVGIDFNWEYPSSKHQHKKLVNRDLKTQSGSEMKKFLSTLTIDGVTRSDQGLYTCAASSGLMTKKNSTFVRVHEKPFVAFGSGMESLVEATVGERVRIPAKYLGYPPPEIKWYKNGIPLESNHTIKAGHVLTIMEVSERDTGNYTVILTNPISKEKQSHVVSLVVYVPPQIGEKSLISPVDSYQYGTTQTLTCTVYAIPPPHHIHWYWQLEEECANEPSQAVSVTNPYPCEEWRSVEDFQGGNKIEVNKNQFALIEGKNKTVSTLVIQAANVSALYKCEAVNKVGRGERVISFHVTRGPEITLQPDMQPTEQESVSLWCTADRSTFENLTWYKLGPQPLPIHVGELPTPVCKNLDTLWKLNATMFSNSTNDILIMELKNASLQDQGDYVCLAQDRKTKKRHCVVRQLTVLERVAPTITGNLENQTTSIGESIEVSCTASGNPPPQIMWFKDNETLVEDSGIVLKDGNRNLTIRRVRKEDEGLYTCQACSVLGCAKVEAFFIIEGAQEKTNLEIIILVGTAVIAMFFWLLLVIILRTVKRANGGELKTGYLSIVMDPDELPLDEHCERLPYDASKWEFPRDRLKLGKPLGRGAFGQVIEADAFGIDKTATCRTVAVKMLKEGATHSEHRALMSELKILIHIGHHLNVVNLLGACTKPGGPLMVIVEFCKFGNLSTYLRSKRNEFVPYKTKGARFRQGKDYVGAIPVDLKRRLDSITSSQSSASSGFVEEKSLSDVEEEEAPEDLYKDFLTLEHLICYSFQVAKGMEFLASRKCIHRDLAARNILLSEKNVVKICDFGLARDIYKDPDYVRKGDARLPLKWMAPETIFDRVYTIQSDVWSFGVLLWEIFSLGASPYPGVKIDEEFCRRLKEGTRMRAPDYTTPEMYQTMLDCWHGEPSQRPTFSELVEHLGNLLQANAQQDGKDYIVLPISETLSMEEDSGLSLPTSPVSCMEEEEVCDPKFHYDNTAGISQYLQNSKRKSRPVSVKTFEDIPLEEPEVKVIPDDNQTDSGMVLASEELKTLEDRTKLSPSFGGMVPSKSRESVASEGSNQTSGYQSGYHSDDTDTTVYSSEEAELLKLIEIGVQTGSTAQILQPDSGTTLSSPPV

Substance: Flt-1 ECD (from UniProt P17948)
- Kd (NRP1 (Homo sapiens) [3]): 1.8 nM

Substance: VEGF (from UniProt P15692)
- Kd [4]: 0.01 nM
- Kd [5]: 0.02 nM
- Kd (VEGFR1 (Homo sapiens)): 0.0333 nM
- Kd [6]: 0.02 nM
- Kd [7]: 0.01 nM
- Kd (VEGFR2 (Homo sapiens)): 0.1 nM

Other lines, results leading:

- Kd (NRP1 (Homo sapiens) [1]): 25 nM
- Kd (NRP1 (Homo sapiens) [2]): 0.2 nM and 0.32 nM
Substance: VEGF165 VEGF165 isoform (from UniProt P15692)

- Kd (NRP1 (Homo sapiens) [3]): 120 nM
Substance: VEGF165 VEGF165 (from UniProt P15692)

- Kd (NRP1 (Homo sapiens) [3]): 220 nM
Substance: VEGF121 VEGF121 (from UniProt P15692)
